The target of assay [1] is T1, human PD-1 expressed on cells (human, UniProt Q15116 25-288). Put plainly: cell-based or functional assay.
Assay [2] deals with T2, human PD-1 (soluble analyte in SPR) (human, UniProt Q15116 25-170, limits assumed).
T2 construct: also called CD279; PDCD1
Put plainly: SPR (ProteOn XPR36), mAb captured on anti-human IgG Fc, PD-1 as analyte, 25 C. The protocol: (§1) Affinity measurements were performed using a ProteOn XPR36 system (BioRad). […] Approximately 5000 RU (response units) of mAbs were immobilized. The kinetic experiments were performed at 25° C. in running buffer (DPBS+0.01% P20+100 μg/mL BSA). To perform kinetic experiments, 200 RU of mAbs were captured followed by injections of analytes (human and cyno PD-1) at concentrations ranging from 1.563 nM to 400 nM (in a […] serial dilution). The association phase was monitored for 3 minutes at 50 μL/min, then followed by 10 or 15 minutes of buffer flow (dissociation phase). The chip surface was regenerated with two 18 second pulses of 100 mM H₃PO₄ (Sigma, Cat #7961) at 100 μL/min.
(§2) The collected data were processed using ProteOn Manager software. First, the data was corrected for background using inter-spots. Then, double reference subtraction of the data was performed by using the buffer injection for analyte injections. The kinetic analysis of the data was performed using a Langmuir 1:1 binding model. The result for each mAb was reported in the format of ka (On-rate), kd (Off-rate) and KD (equilibrium dissociation constant).
Affinity of the parental and humanized antibodies to PD-1 was measured using SPR as described in Example 1.

Assay [3] deals with T1, human PD-1 expressed on cells. Put plainly: cell-based or functional assay. This is another data set of the same source.
The target of assay [4] is T3, cyno PD-1 (soluble analyte in SPR) (cyno).
T3 construct: also called cynomolgus PD-1
Put plainly: SPR (ProteOn XPR36), mAb captured on anti-human IgG Fc, cyno PD-1 as analyte, 25 C. The protocol:
as §1, §2
(§3) Affinity of the antibodies to human and cyno PD-1 was measured using SPR as described in Example 1.

Assay [5] addresses T2, human PD-1 (soluble analyte in SPR). Put plainly: SPR (ProteOn XPR36), mAb captured on anti-human IgG Fc, human PD-1 as analyte, 25 C. On the procedure: as §1, §2, §3
Assay [6] has as its target T1, human PD-1 expressed on cells. Put plainly: cell-based or functional assay. This is another data set of the same source.
Assay [7] shares this target. Put plainly: cell-based or functional assay. The source holds these as a separate data set.

Where a chain is given by its changes, count along the chain named.

We go through 5 molecules from patent US20180355061A1 (Janssen / Centocor, published 2018).

T1 sequence (Q15116 25-288 limits assumed): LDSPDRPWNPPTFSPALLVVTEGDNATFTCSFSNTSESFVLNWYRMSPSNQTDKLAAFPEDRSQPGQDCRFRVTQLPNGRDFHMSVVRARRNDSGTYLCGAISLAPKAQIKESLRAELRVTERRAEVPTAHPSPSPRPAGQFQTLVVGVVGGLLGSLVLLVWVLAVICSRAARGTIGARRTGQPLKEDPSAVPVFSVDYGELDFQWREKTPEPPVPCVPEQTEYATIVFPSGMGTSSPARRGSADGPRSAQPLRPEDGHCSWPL
T2 sequence (Q15116 25-170 limits assumed): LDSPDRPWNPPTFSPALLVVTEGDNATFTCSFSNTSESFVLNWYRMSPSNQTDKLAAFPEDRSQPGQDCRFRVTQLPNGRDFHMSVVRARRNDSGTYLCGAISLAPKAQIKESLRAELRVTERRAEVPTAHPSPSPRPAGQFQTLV

B1: PD1B878 (antibody, human IgG1, kappa, V domains shown)
VH: QVQLVQSGSELKKPGASVKVSCKASGYTFTDYSMHWVRQAPGQGLEWMGWINIETGEPTYAQGFTGRFVFSLDTSVSTAYLQISSLKAEDTAVYFCARDYYGTYFYAMDYWGQGTLVTVSS
VL: EIVLTQSPATLSLSPGERATLSCTASSSVSSSYLHWYQQKPGLAPRLLIYSTSNLASGIPDRFSGSGSGTDYTLTISRLEPEDFAVYYCHQYHRSPLTFGQGTKLEIKR
notes: C84S variant of PD1B743, IgG1; also called VH PD1H405; VL PD1L469
In general, Kd refers to the concentration at which binding is half-saturated. What is called koff is the first-order rate constant of dissociation. Low values mean slow dissociation, high ones fast dissociation. Usually kon stands for the second-order rate constant of association. A higher kon goes with fast association. As for B1, the “% inhibition of activated T cells, CMV-PBMC assay, donor D1” value in assay [1] was determined as 78.3%. In assay [2], this molecule returned a Kd of 58.9 nM, a koff of 0.00351 s⁻¹ and a kon of 59800 M⁻¹ s⁻¹.

B2: PD1B1090 (antibody, human IgG1, kappa, V domains shown)
VH: B1 VH with E57Y
VL: B1 VL with V29F
notes: also called VH PD1H585; VL PD1L651
Turning to B2, the “Mean % inhibition across two donors, CMV-PBMC assay” value (“Mean % inhibition across two donors” for short) in assay [3] was determined as 74.8%. In assay [4], this molecule registered a Kd of 1.43 nM, a koff of 0.000185 s⁻¹ and a kon of 130000 M⁻¹ s⁻¹. In assay [5], binding was characterised by a dissociation constant (Kd) of 0.223 nM, the koff came out at 2.37e-05 s⁻¹ and the kon was 106000 M⁻¹ s⁻¹.

B3: PD1B1086 (antibody, human IgG1, kappa, V domains shown)
VH: B1 VH with E57H
VL: B1 VL
notes: also called VH PD1H586; VL PD1L469
Take B3: the “Mean % inhibition across two donors” value in assay [3] amounted to 72.7%. In assay [4], this molecule showed a Kd of 31.8 nM, a koff of 0.00544 s⁻¹ and a kon of 171000 M⁻¹ s⁻¹. For the same molecule, in assay [5], binding was characterised by a dissociation constant (Kd) of 3.19 nM, the koff is 0.000394 s⁻¹ and the kon came out at 124000 M⁻¹ s⁻¹.

B4: PD1B1094 (antibody, human IgG1, kappa, V domains shown)
VH: B1 VH with E57H
VL: B1 VL with S30P
notes: also called VH PD1H586; VL PD1L652
As to B4, the “Mean % inhibition across two donors” value in assay [3] stood at 77.9%. In addition, in assay [4], the affinity, expressed as Kd, was 12 nM; the koff turned out to be 0.00162 s⁻¹; the kon was 135000 M⁻¹ s⁻¹. In addition, in assay [5], the Kd was determined as 0.871 nM, the koff is 9.16e-05 s⁻¹ and the association rate constant (kon) was determined as 105000 M⁻¹ s⁻¹.

B5: PD1B750 (antibody, human IgG1, kappa, V domains shown)
VH: QVQLVQSGAEVKKPGASVKVSCKASGYTFTTYWMHWVRQAPGQGLEWMGEINPNNGGINYAQKFQGRVTLTVDKSISTAYMELSRLRSDDTAVYYCTIDYYDYGGYWGQGTLVTVSS
VL: DIQMTQSPSSLSASVGDRVTITCKASQNVGTNVAWYQQKPEKAPKSLIYSASYRYSGVPSRFSGSGSGTDFTLTISSLQPEDFATYYCQQYNIYPYTFGQGTKLEIKR
notes: Humanized PD1B506, IgG1; also called VH PD1H388; VL PD1L470
As usually defined, the % inhibition is how much of the control response was suppressed. Lower therefore signals a response near the control. As to B5, the “mean % inhibition of T cell proliferation, CMV-PBMC assay (FIG. 5B)” value in assay [6] was determined as 65.9%. For the same molecule, in assay [7], the “% inhibition at 10 ug/ml mAb, CMV-PBMC assay, donor D4” value stood at 24.2% and the “% inhibition at 10 ug/ml mAb, CMV-PBMC assay, donor D5” value amounted to 75%. In assay [2], this molecule came in with a Kd of 23.2 nM, a koff of 0.00832 s⁻¹ and a kon of 359000 M⁻¹ s⁻¹.
